Data set [1] concerns the target T1, ParB (Spo0J) (Bacillus subtilis 168) (UniProt P26497).
T1 sequence: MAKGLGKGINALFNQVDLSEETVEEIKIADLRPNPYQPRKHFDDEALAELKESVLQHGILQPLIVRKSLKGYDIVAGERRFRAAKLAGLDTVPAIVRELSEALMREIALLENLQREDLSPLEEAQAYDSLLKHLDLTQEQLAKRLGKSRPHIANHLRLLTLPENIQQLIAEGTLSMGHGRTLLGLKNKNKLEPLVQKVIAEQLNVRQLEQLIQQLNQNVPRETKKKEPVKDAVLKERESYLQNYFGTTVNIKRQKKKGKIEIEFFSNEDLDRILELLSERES
As to the kind of experiment: EMSA. The following applies: 50 mM Hepes-KOH pH 7.5, 100 mM KCl, 2.5 mM MgCl2, 0.1 mg/ml BSA, 1 mM DTT, 20 nM DNA, EMSA also 2.5% Ficoll, room temperature 30 min then ice 5 min, gel at 4 C. On the technique in general: Mobility shift assays separate free from complexed probe on a gel.

Data set [2] deals with T1, ParB (Spo0J) (Bacillus subtilis 168). As to the kind of experiment: fluorescence intensity (Cy3). The following applies: 50 mM Hepes-KOH pH 7.5, 100 mM KCl, 2.5 mM MgCl2, 0.1 mg/ml BSA, 1 mM DTT, 20 nM DNA, EMSA also 2.5% Ficoll, room temperature 30 min then ice 5 min, gel at 4 C.

Regarding 147-bp parS, the Kd in data set [1] (specific complex, TBM gel, 2.5 mM Mg2+) is 100 nM.
For the substance “Cy3 147-bp non-specific (scrambled parS)”, the Kd in data set [2] (apparent Kd of ParB2, Hill h = 3.4 ± 0.4, 2.5 mM Mg2+) stood at 275 nM.
In the case of Cy3 147-bp parS, in data set [2], the Kd is 240 nM.
Turning to “GGTACAAAAAGTGATTGCGGAGCAGCTCAATGTTCGCCAACTTGAGCAGCTGATTCAGCAGTTGAATCAGAATGTTCCACGTGAAACAAAGAAAAAAGAACCTGTGAAAGATGCGGTTCTAAAAGAACGGGAATCCTATCTCCAAAA (double strand) [147-bp parS]”, in data set [1], the Kd came out at 100 nM and the binding entry is “binds”.
In the case of “TTTTGGAGATAGGATTCCCGTTCTTTTAGAACCGCATCTTTCACAGGTTCTTTTTTCTTTGTCTCCCTGGGCACGTTCTGATTCAACTGCTGAATCAGCTGCTCAAGTTGGCGAACATTGAGCTGCTCCGCAATCACTTTTTGTACC (double strand) [147-bp non-specific (scrambled parS)]”, the binding entry in data set [1] is given as “binds”.
“TTTTGGAGATAGGATTCCCGTTCTTTTAGAACCGCATCTTTCACAGGTTCTTTTTTCTTTGTCTCCCTGGGCACGTTCTGATTCAACTGCTGAATCAGCTGCTCAAGTTGGCGAACATTGAGCTGCTCCGCAATCACTTTTTGTACC (double strand) [Cy3 147-bp non-specific (scrambled parS)]”: the Kd in data set [2] amounted to 275 nM.
For “TTTTGGAGATAGGATTCCCGTTCTTTTAGAACCGCATCTTTCACAGGTTCTTTTTTCTTTGTTTCACGTGGAACATTCTGATTCAACTGCTGAATCAGCTGCTCAAGTTGGCGAACATTGAGCTGCTCCGCAATCACTTTTTGTACC (double strand) [Cy3 147-bp parS]”, the Kd in data set [2] was found to be 240 nM.

Values taken from article PMC4333373.
